In patent publication US20060063223A1 (CHEMOCENTRYX, published 2006):
Values belong to the molecule of their own block, whether it stands above or below them.

Columns and labels:
[1] = molecular target: T1, human CCR1 (C-C chemokine receptor-1) (human, UniProt P32246 1-355); assay: cell-based or functional assay
T1 sequence (looked up): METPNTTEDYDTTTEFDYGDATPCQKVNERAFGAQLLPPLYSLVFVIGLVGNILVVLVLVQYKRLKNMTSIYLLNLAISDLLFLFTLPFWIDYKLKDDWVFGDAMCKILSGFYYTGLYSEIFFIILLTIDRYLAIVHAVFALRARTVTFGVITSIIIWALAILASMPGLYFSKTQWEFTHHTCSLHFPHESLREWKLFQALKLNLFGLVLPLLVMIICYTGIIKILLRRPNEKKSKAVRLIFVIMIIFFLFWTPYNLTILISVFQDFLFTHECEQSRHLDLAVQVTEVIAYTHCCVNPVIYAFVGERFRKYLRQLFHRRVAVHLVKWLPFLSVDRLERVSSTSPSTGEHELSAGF

[2] = molecular target: T2, human FPRL1 (formyl peptide receptor like 1) (human, UniProt P25090 1-351); assay: cell-based or functional assay
T2 sequence (looked up): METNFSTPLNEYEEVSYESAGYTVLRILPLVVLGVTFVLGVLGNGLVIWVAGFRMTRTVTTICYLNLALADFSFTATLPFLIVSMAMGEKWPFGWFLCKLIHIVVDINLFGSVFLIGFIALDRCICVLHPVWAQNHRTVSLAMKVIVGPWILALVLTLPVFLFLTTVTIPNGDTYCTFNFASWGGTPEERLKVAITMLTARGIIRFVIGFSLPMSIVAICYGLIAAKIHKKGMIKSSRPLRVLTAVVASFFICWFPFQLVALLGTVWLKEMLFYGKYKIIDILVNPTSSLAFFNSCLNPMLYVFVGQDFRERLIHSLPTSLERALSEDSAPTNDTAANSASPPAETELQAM

[3] = molecular target: T2, human FPRL1 (formyl peptide receptor …); assay: competition with 125I-WKYMVm on human monocytes, filter binding
Description: (§1) Binding assay. Competition binding studies were conducted using monocytes, L1.2-CCR1 or L1.2-FPRL1 cells. […] Reactions were aspirated onto PEI-treated GF/B glass filters using a cell harvester (Packard). Filters were washed twice (25 mM HEPES, 500 mM NaCl, 1 mM CaCl₂, 5 mM MgCl₂, adjusted to pH 7.1). Scintillant (MicroScint-10; 35 μl) was added to the filters and counted in a Packard Topcount scintillation counter. Data were analyzed and plotted using Prism (GraphPad Software, San Diego, Calif.).

[4] = molecular target: T1, human CCR1 (C-C chemokine receptor-1); assay: competition with 125I-MIP-1α on L1.2-CCR1 cells
Description: as §1

[5] = molecular target: T2, human FPRL1 (formyl peptide receptor …); assay: competition with 125I-WKYMVm on L1.2-FPRL1 cells, filter binding
Description: as §1

[6] = molecular target: T1, human CCR1 (C-C chemokine receptor-1); assay: competition with 125I-MIP-1α on L1.2-CCR1 cells, 3 hr at 4° C., filter binding
Description: as §1

[7] = molecular target: T1, human CCR1 (C-C chemokine receptor-1); assay: competition with 125I-MIP-1α on human monocytes, 3 hr at 4° C., filter binding
Description: as §1

[8] = molecular target: T1, human CCR1 (C-C chemokine receptor-1); assay: competition with 125I-MIP-1α on human monocytes

- EC50, THP-1 cell migration [1]: 0.5 nM
- fold decrease in potency in THP-1 cell chemotaxis relative to CCL15Δ24/LKN-1 [1]: 3 fold
Molecule: CCL5/RANTES (from UniProt P13501 24-91) (ligand)

- EC50, THP-1 cell chemotaxis [1]: 0.09 nM
- fold increase in binding activity over full-length CCL23α [8]: > 10 fold
B7: CCL23α Δ24 (CCL23Δ24/MPIF-1, 46-120) (ligand)
chain: RFHATSADCCISYTPRSIPCSLLESYFETNSECSKPGVIFLTKKGRRFCANPSDKQVQVCMRMLKLDTRIKTRKN
notes: Recombinant CCL23/CKβ8 lacking the N-terminal 24 residues

- EC50, THP-1 cell chemotaxis [1]: 0.05 nM
- fold decrease of EC50 against undigested CCL23/CKβ8, THP-1 cell chemotaxis [1]: 50 fold
B9: CCL23/CKβ8 digested with chymase (ligand)
chain: HATSADCCISYTPRSIPCSLLESYFETNSECSKPGVIFLTKKGRRFCANPSDKQVQVCMRMLKLDTRIKTRKN

- fold decrease in potency for receptor signaling in L1.2-FPRL1 cells, relative to SHAAGtide [2]: ~10 fold
Molecule: LWRRKIGPQMTLSHAAG [SHAAGtide lacking the N-terminal amino acid (Met)]

- IC50 [6]: 20 nM
- IC50 [7]: 4.5 nM
- IC50 [3]: 35 nM
- fold increase in binding activity over full-length CCL23β [8]: > 10 fold
- IC50 [5]: 210 nM
B11: CCL23β Δ24 (ligand)
chain: MLWRRKIGPQMTLSHAAGFHATSADCCISYTPRSIPCSLLESYFETNSECSKPGVIFLTKKGRRFCANPSDKQVQVCMRMLKLDTRIKTRKN
notes: Begins with the 18-residue SHAAGtide insertion; R&D Systems catalog item; also called CCLβΔ24

The next lines start with the molecule.

B1: CCL15/MIP-1δ digested with PMN sup #1 (ligand)
chain: VLNSFHFAADCCTSYISQSIPCSLMKSYFETSSECSKPGVIFLTKKGRQVCAKPSGPGVQDCMKKLKPYSI
- EC50, THP-1 cell chemotaxis [1]: 0.25 nM

B2: CCL15/MIP-1δ (92aa) (ligand)
chain: QFINDAETELMMSKLPLENPVVLNSFHFAADCCTSYISQSIPCSLMKSYFETSSECSKPGVIFLTKKGRQVCAKPSGPGVQDCMKKLKPYSI
- EC50, THP-1 cell chemotaxis [1]: 50 nM

B3: CCL15/MIP-1δ digested with chymase (ligand)
chain: AADCCTSYISQSIPCSLMKSYFETSSECSKPGVIFLTKKGRQVCAKPSGPGVQDCMKKLKPYSI
- EC50, THP-1 cell chemotaxis [1]: 0.05 nM
- fold increase of potency in THP-1 cell migration over full-length CCL15/MIP-1δ [1]: 1000 fold

B4: SHAAGtide (MLWRRKIGPQMTLSHAAG) (peptide)
peptide: MLWRRKIGPQMTLSHAAG
notes: Synthetic 18-residue peptide; also called CCXP1; SHAAGtide peptide
- EC50 in functional assays [2]: 10 to 30 nM
- IC50 [3]: 10 nM
- binding result [4]: no binding
- IC50 [5]: 280 nM

B5: CCL23/CKβ8 digested with PMN sup #1 (ligand)
chain: LLDRFHATSADCCISYTPRSIPCSLLESYFETNSECSKPGVIFLTKKGRRFCANPSDKQVQVCMRMLKLDTRIKTRKN
- EC50, THP-1 cell chemotaxis [1]: 0.15 nM

B6: CCL3/MIP-1α (ligand, UniProt P10147 27-92, looked up)
chain: ADTPTACCFSYTSRQIPQNFIADYFETSSQCSKPGVIFLTKRSRQVCADPSEEWVQKYVSDLELSA
modifications: also: 125I-labelled when used as tracer
- EC50, THP-1 cell migration [1]: 0.5 nM
- fold decrease in potency in THP-1 cell chemotaxis relative to CCL15Δ24/LKN-1 [1]: ~3 fold
- IC50 [6]: 0.15 nM
- IC50 [7]: 0.3 nM

B8: CCL15Δ24/LKN-1 (68aa) (ligand)
chain: SFHFAADCCTSYISQSIPCSLMKSYFETSSECSKPGVIFLTKKGRQVCAKPSGPGVQDCMKKLKPYSI
- EC50, THP-1 cell chemotaxis [1]: 0.06 nM

B10: CCL23α (CCL23/CKβ8, 22-120) (ligand)
chain: RVTKDAETEFMMSKLPLENPVLLDRFHATSADCCISYTPRSIPCSLLESYFETNSECSKPGVIFLTKKGRRFCANPSDKQVQVCMRMLKLDTRIKTRKN
- EC50, THP-1 cell chemotaxis [1]: 2.5 nM

Molecule: MLWRRKIGPQMT [CCXP5]
- potency for receptor signaling in L1.2-FPRL1 cells, relative to SHAAGtide [2]: 3 fold

B12: CCL23β (ligand)
chain: RVTKDAETEFMMSKLPLENPVLLDMLWRRKIGPQMTLSHAAGFHATSADCCISYTPRSIPCSLLESYFETNSECSKPGVIFLTKKGRRFCANPSDKQVQVCMRMLKLDTRIKTRKN
notes: 116-residue alternatively spliced form; recombinant, special order from R&D Systems; also called CKβ8-1
- binding result [8]: binds
